{"source": "patent US9534237B2", "about": "“Sesquiterpene synthase gene and protein” (University of Kentucky Research Foundation, priority 2003, dated 2017)", "molecules": {"B1": {"name": "CVS: citrus valencene synthase from Citrus paradisi, recombinant His-tagged protein expressed in E. coli, SEQ ID NO.: 4 (protein)", "chain": "MSSGETFRPTADFHPSLWRNHFLKGASDFKTVDHTATQERHEALKEEVRRMITDAEDKPVQKLRLIDEVQRLGVAYHFEKEIEDAILKLCPIYIDSNRADLHTVSLHFRLLRQQGIKISCDVFEKFKDDEGRFKSSLINDVQGMLSLYEAAYMAVRGEHILDEAIAFTTTHLKSLVAQDHVTPKLAEQINHALYRPLRKTLPRLEARYFMSMINSTSDHLYNKTLLNFAKLDFNILLEPHKEELNELTKWWKDLDFTTKLPYARDRLVELYFWDLGTYFEPQYAFGRKIMTQLNYILSIIDDTYDAYGTLEELSLFTEAVQRWNIEAVDMLPEYMKLIYRTLLDAFNEIEEDMAKQGRSHCVRYAKEENQKVIGAYSVQAKWFSEGYVPTIEEYMPIALTSCAYTFVITNSFLGMGDFATKEVFEWISNNPKVVKAASVICRLMDDMQGHEFEQKRGHVASAIECYTKQHGVSKEEAIKMFEEEVANAWKDINEELMMKPTVVARPLLGTILNLARAIDFIYKEDDGYTHSYLIKDQIASVLGDHVPF", "modifications": "His tag; Citrus X paradisi"}}, "key": {"[1]": {"assay": "pH dependence assay of reaction product specificity (GC-MS)", "assay_type": "biochemical", "protocol": "Reactions to determine pH dependence were performed in glass GC-vials with 100 nM of purified enzyme, 20 mM MgCl2, 50 μM FPP (Echelon; Salt Lake City, Utah), and 100 mM buffer at various pH values; total reaction volume 500 μL. The buffers were chosen within one pH unit of the buffer's pKa (pH 5-5.5, acetate; pH 6-7, MES; pH 7.5-9, Tris; pH 9.5-10, ethanolamine; pH 10.5, CAPS). Reactions were allowed to proceed at room temperature for 30 min prior to overlaying with 500 μL of ethylacetate, vortexing for 10 sec, then direct analysis of the reaction products using an HP 6890 gas chromatograph with a 5973 mass spectrometer (Agilent Technologies, Palo Alto, Calif.) with an auto-sampler programmed to remove […] only from the organic phase. GC separations were performed on a 5%-phenyl-methylpolysiloxane column (J&M Scientific, Folsom, Calif.) of 30 m×0.25 mm i.d.×[…] with He as the carrier gas at 2 mL/min and a temperature gradient of 10° C./min from 50° C. (5-min hold) to 180° C. (4-min hold). GC/MS data was analyzed using HP-Chemstation software (version B.01.00) and integration of terpene peaks used for quantification."}, "[2]": {"assay": "Terpene synthase reaction product identification by GC-MS (incubation with FPP at pH 7.5)", "assay_type": "biochemical", "protocol": "Partially purified protein was subsequently incubated with FPP at pH 7.5 using typical sesquiterpene synthase reaction conditions and the pentane extractable products examined by GC-MS (FIG. 7). Two compounds accounting for greater than 95% of the total reaction products dominated the GC profiles and were identified as beta-elemene (30%) and valencene (65%) on the basis of MS matches with authentic standards. The beta-elemene peak most certainly represents a thermal rearrangement product of germacrene A resulting from high temperature injection into the GC.\nSmall scale reactions of 50 μL were used for screening purposes and rate determinations. Reactions typically contained 200 mM Tris-HCl, pH 7.5, 40 mM MgCl2, 0.5 μCi [1-3H]FPP, 25-30 μM FPP and 160 nM enzyme. For kinetic determinations, 10 μL aliquots of FPP (giving final concentrations of 0.7-23 μM) were rapidly mixed with 40 μL of enzyme solution at room temperature (23° C.) and allowed to incubate for 1 minute. The reactions were terminated by addition of 150 μL, of a 100 mM KOH, 0.5 M EDTA stop solution. Reactions were extracted with 500 μL of hexane and an aliquot was taken for determination of radiolabeled hydrophobic product via liquid scintillation counting. Hexane extracted samples were not subject to silica chromatography prior to counting because background was minimal and synthase mutants could possibly produce reaction products containing alcohols, which would bind to silica. Kinetic constants were determined from direct fits of the Michaelis-Menton equation to the data using Graphpad Prism 2.01 software.\nInitial synthase reaction products were examined by GC-MS. […] Pooled extracts were dried to 50 μL under a stream of nitrogen gas and 1 μL aliquots of this organic extract were analyzed by GC-MS using an HP-GCDplus (Hewlett-Packard, Palo Alto, Calif.) equipped with a DB-5 ms column, an injector temperature of 250° C. and the mass selective detector set to scan for ions within the range from 45 to 250 m/z. […]"}, "[3]": {"settings": "partially purified protein incubated with FPP at pH 7.5, pentane extractable products, GC-MS"}}, "note": "Values joined by “and” are separate entries in the source; they are usually repeats but may differ in a detail not shown here. Equal values may be shown once."}
{"molecule": "B1", "values": [{"measurement": "pH of transition from valencene to germacrene A as dominant reaction product", "setting": "[1]; FIG. 10", "value": "8.0 pH and ~8.2 pH"}, {"measurement": "pH of optimal germacrene A biosynthesis", "setting": "[1]; FIG. 10, FPP substrate", "value": 8.5, "unit": "pH"}, {"measurement": "pH of optimal valencene biosynthesis", "setting": "[1]; FIG. 10, FPP substrate", "value": 7.0, "unit": "pH"}, {"measurement": "valencene plus germacrene A (measured as β-elemene) as share of total reaction products", "setting": "[1]; at all pHs, ethylacetate extracts, GC-MS", "value": "greater than 95%"}, {"measurement": "germacrene A as reaction product", "setting": "[1]; between pH 6.0 to 7.0", "value": "virtually no germacrene A was detected"}, {"measurement": "beta-elemene plus valencene as share of total reaction products", "setting": "[2]; pH 7.5, GC profiles", "value": "greater than 95%"}, {"measurement": "beta-elemene (thermal rearrangement product of germacrene A) as share of total reaction products", "setting": "[2]; [3]", "value": 30, "unit": "%"}, {"measurement": "valencene as share of total reaction products", "setting": "[2]; [3]", "value": 65, "unit": "%"}]}
